What was measured:
[1] = substrate: CN(CC(=O)O)C(=O)CN; experiment: TP_TRANSPORTER: uptake in PEPT1-overexpressing Caco-2 cells; type: functional, cell-based
[2] = substrate: CN(CC(=O)O)C(=O)CN; experiment: TP_TRANSPORTER: uptake in Caco-2 cells; type: functional, cell-based

B1: Solute carrier family 15 member 1 (Homo sapiens), P46059 (protein)
chain: MGMSKSHSFFGYPLSIFFIVVNEFCERFSYYGMRAILILYFTNFISWDDNLSTAIYHTFVALCYLTPILGALIADSWLGKFKTIVSLSIVYTIGQAVTSVSSINDLTDHNHDGTPDSLPVHVVLSLIGLALIALGTGGIKPCVSAFGGDQFEEGQEKQRNRFFSIFYLAINAGSLLSTIITPMLRVQQCGIHSKQACYPLAFGVPAALMAVALIVFVLGSGMYKKFKPQGNIMGKVAKCIGFAIKNRFRHRSKAFPKREHWLDWAKEKYDERLISQIKMVTRVMFLYIPLPMFWALFDQQGSRWTLQATTMSGKIGALEIQPDQMQTVNAILIVIMVPIFDAVLYPLIAKCGFNFTSLKKMAVGMVLASMAFVVAAIVQVEIDKTLPVFPKGNEVQIKVLNIGNNTMNISLPGEMVTLGPMSQTNAFMTFDVNKLTRINISSPGSPVTAVTDDFKQGQRHTLLVWAPNHYQVVKDGLNQKPEKGENGIRFVNTFNELITITMSGKVYANISSYNASTYQFFPSGIKGFTISSTEIPPQCQPNFNTFYLEFGSAYTYIVQRKNDSCPEVKVFEDISANTVNMALQIPQYFLLTCGEVVFSVTGLEFSYSQAPSNMKSVLQAGWLLTVAVGNIIVLIVAGAGQFSKQWAEYILFAALLLVVCVIFAIMARFYTYINPAEIEAQFDEDEKKNRLEKSNPYFMSGANSQKQM
[1]
  Km: 2100 µM
[2]
  Km: 700 µM
